Patent US10912839B2, “Methods of treating cancer using compounds containing a vascular disrupting agent” (priority 2008, dated 2021)
Non-standard residues stand in square brackets, D forms with d. Residues, ends and D or L forms follow the SMILES beside them. No end group written: not given here. *: point of attachment. NH(Colchicin-10-yl) = COc1cc2c(c(OC)c1OC)-c1ccc(N*)c(=O)cc1[C@@H](NC(C)=O)CC2; FITC = O=C1OC2(c3ccc(O)cc3Oc3cc(O)ccc32)c2ccc(NC(=S)*)cc21; hPhe = N[C@@H](CCc1ccccc1)C(=O)O; Cit = NC(=O)NCCC[C@H](N)C(=O)O; βAla = NCCC(=O)O

How the values were obtained:
[1] = Ex vivo prodrug stability in normal mouse plasma (LC/MS/MS); conditions: for stability in plasma and/or liver: alternative endcaps on MT-MMP prodrug; for stability in plasma: normal mouse plasma ex vivo
From the text: Prodrug cleavage and metabolism were detected using LC/MS/MS. • a.

[2] = Ex vivo prodrug metabolism in HT1080 tumour homogenate (LC/MS/MS); assay type: in vitro ADME, human; conditions: for half-life: human, tissue homogenate, HT1080 tumour homogenate, mean of four independent experiments, read-out: Tumour t½
From the text: (§1) Liver was representative of all normal tissues analysed. (FIG. 5) • d.
(§2) Half lives are the mean taken from four independent experiments. Liver represent murine liver homogenate and tumour represents HT1080

[3] = Ex vivo prodrug stability in normal mouse liver homogenate (LC/MS/MS); assay type: in vitro ADME; conditions: for half-life: mouse, tissue homogenate, murine liver homogenate, mean of four independent experiments, read-out: Liver t½; for stability in liver homogenate: normal mouse liver homogenate ex vivo
From the text: as §1, §2

[4] = tested on: HT1080 xenografts; experiment: Dose response antitumour study, subcutaneous HT1080 xenografts; assay type: in vivo, Balb/C mice; conditions: for Growth delay: vs control
Protocol: (§3) ICT-2552 and ICT-2588 (‘prodrug’) were administered as a single dose via the intraperitoneal route to Balb/C mice bearing subcutaneous HT1080 xenografts. Each of the nine dosing groups comprised 8 mice. The anti-tumour effects of the compounds were assessed by determination of tumour volume and the existence of off-target toxicity was ascertained via monitoring mouse body weight.
(§4) The dosing groups evaluated ICT-2588 (prodrug) relative to the molar equivalent dose of ICT-2552 (warhead), and were: • 10% DMSO/oil (solvent control) • ICT-2588 at 37.5 mg/kg; 50.0 mg/kg; 62.5 mg/kg; 75.0 mg/kg • ICT-2552 at 7.5 mg/kg; 10.0 mg/kg; 12.5 mg/kg; 15 mg/kg Results

[5] = Off-target toxicity by mouse body weight in antitumour study; assay type: in vivo, Balb/C mice
Protocol: as §3, §4
The weight of all mice was within the tolerated loss of 15% of bodyweight, therefore the compounds are not classified as toxic to the whole body system.

[6] = Tissue levels of prodrug and VDA2 after intraperitoneal dosing of HT1080 tumour-bearing mice; assay type: in vivo; conditions: for VDA2 levels in tumour following prodrug administration: HT1080 tumour; for prodrug accumulation in tissues / site of highest prodrug levels: HT1080 tumour-bearing mice
From the text: as §1

[7] = ICT-2552 10.0 mg/kg single i.p.
[8] = ICT-2552 12.5 mg/kg single i.p.
[9] = ICT-2552 15.0 mg/kg single i.p.

Q: Which “stability in plasma and/or liver” value [1] does the source give for `COc1cc2c(c(OC)c1OC)-c1ccc(NC(=O)[C@H](Cc3ccc(O)cc3)NC(=O)[C@H](CC(C)C)NC(=O)[C@H](Cc3ccc(O)cc3)NC(=O)[C@H](CCc3ccccc3)NC(=O)CNC(=O)[C@H](CCCNC(N)=O)NC(=O)[C@H](CO)NC(=O)[C@H](CCCNC(=N)N)NC(=O)[C@@H](CO)NC(=O)[C@@H](CO)NC(=O)[C@H](N)CO)c(=O)cc1[C@@H](NC(C)=O)CC2` [3×D-Serine] (H-[dS][dS][dS]RS[Cit]G[hPhe]YLY-{NH(Colchicin-10-yl)}) here?
A: insufficiently stable

Q: With `COc1cc2c(c(OC)c1OC)-c1ccc(NC(=O)[C@H](Cc3ccc(O)cc3)NC(=O)[C@H](CC(C)C)NC(=O)[C@H](C)NC(=O)[C@H](CCc3ccccc3)NC(=O)CNC(=O)[C@H](CCCNC(N)=O)NC(=O)[C@H](CO)NC(=O)[C@H](CCCNC(=N)N)NC(=O)CCNC(=S)Nc3ccc4c(c3)C(=O)OC43c4ccc(O)cc4Oc4cc(O)ccc43)c(=O)cc1[C@@H](NC(C)=O)CC2` [ICT3053] ({FITC-βAla}-RS[Cit]G[hPhe]ALY-{NH(Colchicin-10-yl)}) as the compound, how does the half-life [2] read?
A: 17 min

Q: And the half-life [3]?
A: 76 min

Q: Which half-life [2] does the source give for `COc1cc2c(c(OC)c1OC)-c1ccc(NC(=O)[C@H](Cc3ccc(O)cc3)NC(=O)[C@H](CC(C)C)NC(=O)[C@H](CO)NC(=O)[C@H](CCc3ccccc3)NC(=O)CNC(=O)[C@H](CCCNC(N)=O)NC(=O)[C@H](CO)NC(=O)[C@H](CCCNC(=N)N)NC(=O)CCNC(=S)Nc3ccc4c(c3)C(=O)OC43c4ccc(O)cc4Oc4cc(O)ccc43)c(=O)cc1[C@@H](NC(C)=O)CC2` [ICT3054] ({FITC-βAla}-RS[Cit]G[hPhe]SLY-{NH(Colchicin-10-yl)}) here?
A: 9 min

Q: And the half-life [3]?
A: 66 min

Q: Which half-life [2] does the source give for `COc1cc2c(c(OC)c1OC)-c1ccc(NC(=O)[C@H](Cc3ccc(O)cc3)NC(=O)[C@H](CC(C)C)NC(=O)[C@H](CC(=O)O)NC(=O)[C@H](CCc3ccccc3)NC(=O)CNC(=O)[C@H](CCCNC(N)=O)NC(=O)[C@H](CO)NC(=O)[C@H](CCCNC(=N)N)NC(=O)CCNC(=S)Nc3ccc4c(c3)C(=O)OC43c4ccc(O)cc4Oc4cc(O)ccc43)c(=O)cc1[C@@H](NC(C)=O)CC2` [ICT3055] ({FITC-βAla}-RS[Cit]G[hPhe]DLY-{NH(Colchicin-10-yl)}) here?
A: 7 min

Q: What about the half-life [3] of the same compound?
A: 67 min

Q: With `COc1cc2c(c(OC)c1OC)-c1ccc(NC(=O)[C@H](Cc3ccc(O)cc3)NC(=O)[C@H](CC(C)C)NC(=O)[C@H](CC(N)=O)NC(=O)[C@H](CCc3ccccc3)NC(=O)CNC(=O)[C@H](CCCNC(N)=O)NC(=O)[C@H](CO)NC(=O)[C@H](CCCNC(=N)N)NC(=O)CCNC(=S)Nc3ccc4c(c3)C(=O)OC43c4ccc(O)cc4Oc4cc(O)ccc43)c(=O)cc1[C@@H](NC(C)=O)CC2` [ICT3078] ({FITC-βAla}-RS[Cit]G[hPhe]NLY-{NH(Colchicin-10-yl)}) as the compound, how does the half-life [2] read?
A: 11 min

Q: What about the half-life [3] of the same compound?
A: 76 min

Q: Which half-life [2] does the source give for `COc1cc2c(c(OC)c1OC)-c1ccc(NC(=O)[C@H](Cc3ccc(O)cc3)NC(=O)[C@H](CC(C)C)NC(=O)[C@H](CC(C)C)NC(=O)[C@H](CCc3ccccc3)NC(=O)CNC(=O)[C@H](CCCNC(N)=O)NC(=O)[C@H](CO)NC(=O)[C@H](CCCNC(=N)N)NC(=O)CCNC(=S)Nc3ccc4c(c3)C(=O)OC43c4ccc(O)cc4Oc4cc(O)ccc43)c(=O)cc1[C@@H](NC(C)=O)CC2` [ICT3080] ({FITC-βAla}-RS[Cit]G[hPhe]LLY-{NH(Colchicin-10-yl)}) here?
A: 48 min

Q: What about the half-life [3] of the same compound?
A: 134 min

Q: Which half-life [2] does the source give for `COc1cc2c(c(OC)c1OC)-c1ccc(NC(=O)[C@H](Cc3ccc(O)cc3)NC(=O)[C@H](CC(C)C)NC(=O)[C@@H]3CCCN3C(=O)[C@H](CCc3ccccc3)NC(=O)CNC(=O)[C@H](CCCNC(N)=O)NC(=O)[C@H](CO)NC(=O)[C@H](CCCNC(=N)N)NC(=O)CCNC(=S)Nc3ccc4c(c3)C(=O)OC43c4ccc(O)cc4Oc4cc(O)ccc43)c(=O)cc1[C@@H](NC(C)=O)CC2` [ICT3097] ({FITC-βAla}-RS[Cit]G[hPhe]PLY-{NH(Colchicin-10-yl)}) here?
A: 24 min

Q: What about the half-life [3] of the same compound?
A: 110 min

Q: Which “Mean time to RTV2” value ([4]; ICT-2552 7.5 mg/kg single i.p.) does the source give for `COc1cc2c(c(OC)c1OC)-c1ccc(N)c(=O)cc1[C@@H](NC(C)=O)CC2` [ICT-2552, azademethylcolchicine] here?
A: 4.0 days

Q: And the “Median time RTV2” value ([4]; ICT-2552 7.5 mg/kg single i.p.)?
A: 3.8 days

Q: What about the Growth delay ([4]; ICT-2552 7.5 mg/kg single i.p.) of the same compound?
A: 1.6 days

Q: What about the “Mean time to RTV2” value [4, 7] of the same compound?
A: 4.4 days

Q: And the “Median time RTV2” value [4, 7]?
A: 4.2 days

Q: And the Growth delay [4, 7]?
A: 2.0 days

Q: What about the “Mean time to RTV2” value [4, 8] of the same compound?
A: 4.5 days

Q: What about the “Median time RTV2” value [4, 8] of the same compound?
A: 4.7 days

Q: What about the Growth delay [4, 8] of the same compound?
A: 2.5 days

Q: And the “Mean time to RTV2” value [4, 9]?
A: 4.1 days

Q: And the “Median time RTV2” value [4, 9]?
A: 4.1 days

Q: What about the Growth delay [4, 9] of the same compound?
A: 1.9 days

Q: What about the “delay in tumour growth” value ([4]; all evaluated doses) of the same compound?
A: significant delay in tumour growth

Q: And the tumour response ([4]; all tested dose levels)?
A: Tumour responses were observed

Q: What about the “Maximum % weight loss” value ([5]; ICT-2552 7.5 mg/kg) of the same compound?
A: 3%

Q: And the “day of maximum weight loss” value ([5]; ICT-2552 7.5 mg/kg)?
A: 4 days

Q: What about the “Maximum % weight loss” value ([5]; ICT-2552 10.0 mg/kg) of the same compound?
A: 6 (6) %

Q: What about the “day of maximum weight loss” value ([5]; ICT-2552 10.0 mg/kg) of the same compound?
A: 6 (6) day

Q: What about the “Maximum % weight loss” value ([5]; ICT-2552 12.5 mg/kg) of the same compound?
A: 6%

Q: And the “day of maximum weight loss” value ([5]; ICT-2552 12.5 mg/kg)?
A: 1 days

Q: What about the “Maximum % weight loss” value ([5]; ICT-2552 15.0 mg/kg) of the same compound?
A: 5%

Q: What about the “day of maximum weight loss” value ([5]; ICT-2552 15.0 mg/kg) of the same compound?
A: 1 days

Q: What does the source list for `COc1cc2c(c(OC)c1OC)-c1ccc(NC(=O)[C@H](Cc3ccc(O)cc3)NC(=O)[C@H](CC(C)C)NC(=O)[C@H](Cc3ccc(O)cc3)NC(=O)[C@H](CCc3ccccc3)NC(=O)CNC(=O)[C@H](CCCNC(N)=O)NC(=O)[C@H](CO)NC(=O)[C@H](CCCNC(=N)N)NC(=O)CCNC(=S)Nc3ccc4c(c3)C(=O)OC43c4ccc(O)cc4Oc4cc(O)ccc43)c(=O)cc1[C@@H](NC(C)=O)CC2` [ICT-2588] ({FITC-βAla}-RS[Cit]G[hPhe]YLY-{NH(Colchicin-10-yl)})?
A: VDA2 levels in tumour following prodrug administration [6]: High concentrations; prodrug accumulation in tissues [6]: accumulated and was detected in all tissues analysed; site of highest prodrug levels [6]: Highest prodrug-2 levels were observed in the tumour; VDA2 in plasma following prodrug administration ([6]; plasma): undetectable; VDA2 level in tumour relative to normal tissues ([6]; tumour vs normal tissues): 10 times higher; levels of prodrug-2 and VDA2 in tumour 48 hours post administration ([6]; tumour, 48 hours): still detectable; stability in plasma [1]: remained intact; metabolism in tumour homogenate, high versus low MT-MMP ([2]; HT1080 (high MT-MMP) relative to MCF7 (low MT-MMP) homogenate): metabolised rapidly; half-life [2]: 33 min; half-life [3]: 149 min; stability in liver homogenate [3]: remained stable; Maximum % weight loss ([5]; ICT-2588 37.5 mg/kg): 3 (3) %; day of maximum weight loss ([5]; ICT-2588 37.5 mg/kg): 3 (3) day; Maximum % weight loss ([5]; ICT-2588 50.0 mg/kg): 5%; day of maximum weight loss ([5]; ICT-2588 50.0 mg/kg): 3 days; Maximum % weight loss ([5]; ICT-2588 62.5 mg/kg): 4%; day of maximum weight loss ([5]; ICT-2588 62.5 mg/kg): 3 days; Maximum % weight loss ([5]; ICT-2588 75.0 mg/kg): 5%; day of maximum weight loss ([5]; ICT-2588 75.0 mg/kg): 3 days

Q: Which “prodrug level after 24 hours post-dosing” value ([6]; 24 hours) does the source give for `COc1cc2c(c(OC)c1OC)-c1ccc(NC(=O)[C@H](Cc3ccc(O)cc3)NC(=O)[C@H](CC(C)C)NC(=O)[C@H](Cc3ccc(O)cc3)NC(=O)[C@H](CCc3ccccc3)NC(=O)CNC(=O)[C@H](CCCNC(N)=O)NC(=O)[C@@H]3CCCN3C(=O)[C@H](CCC(=O)O)NC(=O)CCNC(=S)Nc3ccc4c(c3)C(=O)OC43c4ccc(O)cc4Oc4cc(O)ccc43)c(=O)cc1[C@@H](NC(C)=O)CC2` [Prodrug-1] ({FITC-βAla}-EP[Cit]G[hPhe]YLY-{NH(Colchicin-10-yl)}) here?
A: not detectable

Q: What about the “VDA2 levels in tumour following prodrug administration” value [6] of the same compound?
A: detected at high levels

Q: What about the “prodrug accumulation in tissues” value [6] of the same compound?
A: accumulated and was detected in all tissues analysed

Q: And the “site of highest prodrug levels” value [6]?
A: Highest prodrug-1 levels were observed in the tumour

Q: And the “VDA2 levels in normal tissues following prodrug administration” value ([6]; normal tissues)?
A: detectable at low levels

Q: And the “VDA2 in normal tissues after 24 hours post-dosing” value ([6]; normal tissues, 24 hours)?
A: undetectable

Q: What about the “VDA2 in tumour after 24 hours post-dosing” value ([6]; tumour, 24 hours) of the same compound?
A: still detectable at high levels

Q: And the stability in plasma [1]?
A: stable

Q: And the “metabolism in tumour homogenate” value ([2]; HT1080 xenograft homogenate ex vivo)?
A: metabolised

Q: What about the “stability in liver homogenate” value [3] of the same compound?
A: stable

Q: With “Quinic acid+2×D-Serine: conjugate based on MT-MMP prodrug (SEQ ID NO: 4) with quinic acid+2×D-Serine endcap (RS[Cit]G[hPhe]YLY; not fully specified (N-terminus); also: quinic acid + 2×D-Ser endcap, end not given here)” as the compound, how does the “stability in plasma and/or liver” value [1] read?
A: insufficiently stable
